This note sets out measurements from PMC4866497.

Read-outs that look alike come from different tables or passages of the source.

For data set [1], the target named is EGFR domain 3 - Fc, wild-type CH3. Nature of the data set: FRET or BRET.
Data set [2] concerns MetMab full heavy chain with K409D K392D, with MetMab light chain. Briefly: SEC. Background: SEC sorts molecules by how far they enter the pores of the column.
Data set [3] shares this test system. Briefly: SEC. This is another data set of the same source.
The test system of data set [4] is MetMab full heavy chain with Y349S K370Y T366M K409V, with MetMab light chain. Nature of the data set: SEC.
The test system is the same in data set [5]. Nature of the data set: SEC. This is another data set of the same source.
Data set [6] deals with MetMab full heavy chain with Y349S K370Y T366V K409V, with MetMab light chain. Briefly: SEC.
The test system is the same in data set [7]. Nature of the data set: SEC. The source holds these as a separate data set.
Data set [8] relates to MetMab full heavy chain with D399K E356K, with MetMab light chain. Briefly: SEC.
Data set [9] has the same test system. Briefly: SEC. This is another data set of the same source.
Data set [10] has as its system MetMab full heavy chain with T366W, with MetMab light chain. Briefly: SEC.
The test system is the same in data set [11]. Briefly: SEC. This is another data set of the same source.
Data set [12] concerns MetMab full heavy chain with E357D S364R Y407A, with MetMab light chain. Nature of the data set: SEC.
Data set [13] has as its system MetMab full heavy chain with E356G E357D S364Q Y407A, with MetMab light chain. Nature of the data set: SEC.
For data set [14], the system named is MetMab full heavy chain with E357D S364R Y407A, with MetMab light chain. Briefly: SEC. This is another data set of the same source.
In data set [15] the test system is MetMab full heavy chain with E356G E357D S364Q Y407A, with MetMab light chain. Briefly: SEC. The source holds these as a separate data set.
Data set [16] concerns MetMab full heavy chain with E357D S364Q Y407A, with MetMab light chain. Nature of the data set: SEC.
The test system is the same in data set [17]. Nature of the data set: SEC. This is another data set of the same source.
In data set [18] the test system is MetMab full heavy chain with wild-type CH3, with MetMab light chain [IgG part: P01857]. Briefly: SEC.
Data set [19] has the same test system. Briefly: SEC. This is another data set of the same source.
A further data set has as its target IgG1 Fc, wild-type CH3. Briefly: SEC.
Data set [20] deals with MetMab full heavy chain with T350V L351Y F405A Y407V, with MetMab light chain. Nature of the data set: SEC.
Data set [21] has as its target MetMab full heavy chain with T350V T366L K392L T394W, with MetMab light chain. Nature of the data set: SEC.
In data set [22] the target is MetMab full heavy chain with T366V K409V, with MetMab light chain. Nature of the data set: SEC.
The target is the same in data set [23]. Briefly: SEC. This is another data set of the same source.
For data set [24], the target named is MetMab full heavy chain with wild-type CH3, with MetMab light chain [IgG part: P01857]. Nature of the data set: SEC. The source holds these as a separate data set.
The test system of data set [25] is EGFR domain 3 - Fc with K409D K392D. Nature of the data set: FRET or BRET. In general terms: BRET reads energy transfer from a luciferase to a nearby fluorophore.
In data set [26] the test system is EGFR domain 3 - Fc with Y349S K370Y T366M K409V. Nature of the data set: FRET or BRET.
Data set [27] has as its system EGFR domain 3 - Fc with Y349S K370Y T366V K409V. Briefly: FRET or BRET.
For data set [28], the system named is EGFR domain 3 - Fc with T366W. Nature of the data set: FRET or BRET.
Data set [29] concerns the target VEGFR1 domain 3 - Fc, wild-type CH3. Briefly: FRET or BRET.

Turning to “EGFR domain 3 - Fc, wild-type CH3 (Fc fusion)”, the % AA homodimer (co-expressed with m42) in data set [1] was 24.2%.
As to IgG1 Fc with D399K E356K, the results for the % AB heterodimer in [2] and in data set [3] were 37.5% and 91.7%, respectively.
Consider IgG1 Fc with E356G E357D S364Q Y407A, for which the % AB heterodimer came to 23.6% in data set [4] and 83.8% in data set [5].
Consider IgG1 Fc with E357D S364Q Y407A, for which the values for the % AB heterodimer in [6] and in data set [7] were 11.7% and 84.9%, respectively.
As to IgG1 Fc with E357D S364R Y407A, the % AB heterodimer came to 34.7% in data set [4] and 83.5% in [5].
For IgG1 Fc with K409D K392D, the values for the % AB heterodimer in data set [8] and in [9] were 29.4% and 93.6%, respectively.
Take IgG1 Fc with T366S L358V Y407A: the results for the % AB heterodimer in [10] and in data set [11] were 35% and 92.4%, respectively.
With IgG1 Fc with Y349S K370Y T366M K409V, the % AB heterodimer is 29.9% in data set [12], 31.8% in data set [13], 85.5% in data set [14] and 94.2% in [15].
As for IgG1 Fc with Y349S K370Y T366V K409V, the values for the % AB heterodimer in data set [16] and in [17] were 4.7% and 92.5%, respectively.
Consider IgG1 Fc, wild-type CH3, for which the % AB heterodimer turned out to be 27.4% in data set [18] and 51.3% in data set [19].
“IgG1 Fc, wild-type CH3 (domain or fragment)” registered a % BB homodimer (co-expressed with m1) in the data set with IgG1 Fc, wild-type CH3 of 15.9%.
Regarding “MetMab full heavy chain with D399K E356K, with MetMab light chain (complex)”, the % AA homodimer (co-expressed with m18) in data set [8] is 11.3%.
As for “MetMab full heavy chain with K409D K392D, with MetMab light chain (complex)”, in data set [2], the % AA homodimer (co-expressed with m19) turned out to be 19.9%.
“MetMab full heavy chain with T350V L351Y F405A Y407V, with MetMab light chain (complex)”: in [20], the % AA homodimer (co-expressed with m22) was 9%.
As for “MetMab full heavy chain with T350V T366L K392L T394W, with MetMab light chain (complex)”, in [21], the % AA homodimer (co-expressed with m23) turned out to be 5.1%.
In data set [22], “MetMab full heavy chain with T366V K409V, with MetMab light chain (complex)” showed a % AA homodimer (co-expressed with m24) of 4.1% and a % AA long dimer (co-expressed with m24) of 3.8%. For the same substance, in data set [23], the % AA homodimer (co-expressed with m24) turned out to be 28.6% and the % AA long dimer (co-expressed with m24) came to 24.1%.
As to “MetMab full heavy chain with T366W, with MetMab light chain (complex)”, the % AA homodimer (co-expressed with m21) in data set [10] worked out at 15.7%.
In the case of “MetMab full heavy chain with wild-type CH3, with MetMab light chain (from UniProt P01857 1-399) (complex)”, the % AA homodimer (co-expressed with m17) in [24] is 31.3%; in data set [18] it was 65%.
In turn, VEGFR1 domain 3 - Fc with D399K E356K showed a % AB heterodimer in data set [25] of 96.2%.
Regarding “VEGFR1 domain 3 - Fc with E356G E357D S364Q Y407A”, the % AB heterodimer in [26] turned out to be 93.9%.
For “VEGFR1 domain 3 - Fc with E357D S364Q Y407A”, the % AB heterodimer in [27] came out at 93.3%.
Take “VEGFR1 domain 3 - Fc with T366S L358V Y407A”: in data set [28], the % AB heterodimer was 96.2%.
Substance VEGFR1 domain 3 - Fc, wild-type CH3 returned a % AB heterodimer in data set [1] of 61.2%.
Substance “VEGFR1 domain 3 - Fc, wild-type CH3 (Fc fusion)” displayed a % BB homodimer (co-expressed with m35) in data set [29] of 14.6%.
